Patent US20050129672, “Regulatory sequences that direct gene expression to spinal motor neurons and uses thereof” (published 2005)

Tests used:
HOXB3 + PBX1 = HOXB3 + PBX1 (UniProt P14651;P40424 P14651:1-431,P40424:1-430); assay: EMSA; cooperative complex; 20 mM Hepes pH 7.6, 30 mM KCl, poly(dI-dC), RT; conditions: tags: pSG5-derived vectors, reticulocyte lysate; label: DIG
Description: (§1) PBX1 and HOX proteins used in this study were produced in vitro from the corresponding pSG5-derived expression vectors using a T7 polymerase-based coupled transcription-translation reticulocyte lysate system (Promega, Madison, Wis.). EMSA were performed according to the instruction of DIG gel shift kit (Roche). Briefly, 2 μl of double-stranded DIG-labeled oligonucleotides were incubated with 2 μl of in vitro-translated proteins in 20 μl of binding buffer (20 mM Hepes pH 7.6, 1 mM EDTA, 10 mM (NH₄)₂SO_{4, 1} mM DTT, 0.2%(w/v) Tween 20, 30 mM KCl in the presence of 1 μg of poly (dI-dC) and 0.1 μg of poly L-lysine) for 30 min at room temperature. Pre-binding reactions of unlabeled competitor oligonucleotides at ˜100-fold molar excess occurred for 15 minutes at room temperature. The incubation mixture was resolved by electrophoresis and served for chemiluminescent detection according to recommended conditions of DIG gel shift kit (Roche). DIG-labeled DNA probes used were generated by annealing complementary oligonucleotides:
(§2) Next, a representative subset of HOX proteins was tested for cooperative DNA binding with Pbx 1, to both the wild-type and a mutated 40 bp sequence derived from the 125 bp Hb9 enhancer (FIG. 6D). […] No binding was detected with PBX1 alone (lane 1), or with either of the HOX proteins alone. […]

PBX1 = biological target: T1, PBX1 (UniProt P40424 P40424:1-430); assay: EMSA; PBX1 alone; conditions: tags: pSG5-derived vector, reticulocyte lysate; label: DIG
T1 sequence: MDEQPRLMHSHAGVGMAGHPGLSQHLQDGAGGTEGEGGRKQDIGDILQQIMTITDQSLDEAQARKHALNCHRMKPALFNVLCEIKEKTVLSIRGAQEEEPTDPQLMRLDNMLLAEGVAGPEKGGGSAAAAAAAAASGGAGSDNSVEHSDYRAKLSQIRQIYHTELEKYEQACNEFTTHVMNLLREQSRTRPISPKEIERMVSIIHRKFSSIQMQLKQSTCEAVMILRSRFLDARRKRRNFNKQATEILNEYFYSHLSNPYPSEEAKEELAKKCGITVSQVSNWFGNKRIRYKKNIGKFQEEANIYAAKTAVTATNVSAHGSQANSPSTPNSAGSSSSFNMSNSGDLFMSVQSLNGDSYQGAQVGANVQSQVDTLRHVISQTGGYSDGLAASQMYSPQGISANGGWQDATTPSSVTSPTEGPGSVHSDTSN
Description: as §1, §2

HOXB1 + PBX1 = HOXB1 + PBX1 (UniProt P14653;P40424 P14653:1-301,P40424:1-430); assay: EMSA; cooperative complex; abolished by anti-PBX1 antibody; 20 mM Hepes pH 7.6, 30 mM KCl, poly(dI-dC), RT; conditions: tags: pSG5-derived vectors, reticulocyte lysate; label: DIG
Description: as §1, §2

HOXB3 = HOXB3 (UniProt P14651 P14651:1-431); assay: EMSA; HOX alone; conditions: tags: pSG5-derived vector, reticulocyte lysate; label: DIG
Description: as §1, §2

HOXB1 = HOXB1 (UniProt P14653 P14653:1-301); assay: EMSA; HOX alone; conditions: tags: pSG5-derived vector, reticulocyte lysate; label: DIG
Description: as §1, §2

HOXC8 + PBX1 = HOXC8 + PBX1 (UniProt P31273;P40424 P31273:1-242,P40424:1-430); assay: EMSA; no retarded complex with PBX1; conditions: tags: pSG5-derived vectors, reticulocyte lysate; label: DIG
Description: as §1, §2

HOXD9 + PBX1 = HOXD9 + PBX1 (UniProt P28356;P40424 P28356:1-352,P40424:1-430); assay: EMSA; no retarded complex with PBX1; conditions: tags: pSG5-derived vectors, reticulocyte lysate; label: DIG
Description: as §1, §2

HOXD9 + PBX1, sequence (P28356 whole entry, one chain of several): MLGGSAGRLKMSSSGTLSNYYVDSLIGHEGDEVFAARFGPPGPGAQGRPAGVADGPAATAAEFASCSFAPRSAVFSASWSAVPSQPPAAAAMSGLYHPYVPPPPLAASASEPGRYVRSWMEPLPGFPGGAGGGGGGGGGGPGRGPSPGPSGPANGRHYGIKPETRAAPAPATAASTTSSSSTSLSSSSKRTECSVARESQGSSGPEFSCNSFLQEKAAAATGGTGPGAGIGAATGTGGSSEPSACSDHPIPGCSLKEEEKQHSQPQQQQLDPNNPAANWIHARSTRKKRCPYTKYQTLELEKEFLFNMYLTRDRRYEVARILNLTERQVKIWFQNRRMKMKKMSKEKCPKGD
HOXB3, sequence (P14651 whole entry, one chain of several): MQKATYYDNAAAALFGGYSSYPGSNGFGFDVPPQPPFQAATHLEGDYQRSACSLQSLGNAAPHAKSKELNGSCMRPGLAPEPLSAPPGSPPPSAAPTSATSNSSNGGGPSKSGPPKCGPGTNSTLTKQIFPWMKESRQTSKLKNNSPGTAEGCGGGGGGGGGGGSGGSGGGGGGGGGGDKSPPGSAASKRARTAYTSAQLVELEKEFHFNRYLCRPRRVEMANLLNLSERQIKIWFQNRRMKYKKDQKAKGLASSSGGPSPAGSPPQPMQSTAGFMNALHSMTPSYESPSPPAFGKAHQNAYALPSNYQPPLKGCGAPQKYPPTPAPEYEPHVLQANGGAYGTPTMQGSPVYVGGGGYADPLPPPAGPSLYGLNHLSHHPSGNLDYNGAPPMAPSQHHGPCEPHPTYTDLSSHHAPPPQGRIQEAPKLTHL
HOXB3 + PBX1, sequence (P14651 whole entry, one chain of several): as above
HOXC8 + PBX1, sequence (P31273 whole entry, one chain of several): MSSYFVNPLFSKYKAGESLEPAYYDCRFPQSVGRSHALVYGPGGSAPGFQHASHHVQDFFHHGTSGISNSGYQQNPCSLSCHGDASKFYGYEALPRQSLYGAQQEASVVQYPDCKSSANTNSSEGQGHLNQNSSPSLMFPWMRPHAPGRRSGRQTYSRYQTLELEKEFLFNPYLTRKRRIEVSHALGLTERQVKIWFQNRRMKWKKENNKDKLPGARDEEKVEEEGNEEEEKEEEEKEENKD
HOXB1, sequence (P14653 whole entry, one chain of several): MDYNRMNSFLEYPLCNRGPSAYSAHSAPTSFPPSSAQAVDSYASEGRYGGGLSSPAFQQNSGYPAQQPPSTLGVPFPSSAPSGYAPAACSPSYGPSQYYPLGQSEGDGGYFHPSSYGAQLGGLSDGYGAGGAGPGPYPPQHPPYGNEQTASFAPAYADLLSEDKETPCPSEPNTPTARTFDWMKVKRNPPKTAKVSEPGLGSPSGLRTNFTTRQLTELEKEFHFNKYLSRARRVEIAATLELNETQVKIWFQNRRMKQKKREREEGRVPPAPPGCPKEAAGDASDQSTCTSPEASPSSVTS
HOXB1 + PBX1, sequence (P14653 whole entry, one chain of several): as above

B1: Hb9 125 bp enhancer wild-type 40 bp probe (dsDNA)
DNA 1: GTACGTTAGCTGATGAATTGACAAAAACTAATCAGCTTTA
DNA 2: TAAAGCTGATTAGTTTTTGTCAATTCATCAGCTAACGTAC
binding result (HOXB3 + PBX1): binds
binding result (PBX1): no binding
binding result (HOXB1 + PBX1): binds
binding result (HOXB3): no binding
binding result (HOXB1): no binding
binding result (HOXC8 + PBX1): no binding
binding result (HOXD9 + PBX1): no binding
